Data on three substances can be found in article PMC6868016.

The target of assay [1] is Halo7-GluA1 (GluA1 tagged with Halo7 at its N-terminus, pcDNA3.1B) (mouse). The assay can be described thus: single-molecule fluorescence tracking (TIRF), colocalization durations, simultaneous two colours; living HEK293 cells, plasma membrane, ATTO594 on ACP tags and rhodamine110 on Halo7 tags, colocalization = within 240 nm; lifetimes corrected for photobleaching; 37 °C (ACP-TM with Halo7-TM at 22 °C).
Target sequence in this assay (P23818 19-907): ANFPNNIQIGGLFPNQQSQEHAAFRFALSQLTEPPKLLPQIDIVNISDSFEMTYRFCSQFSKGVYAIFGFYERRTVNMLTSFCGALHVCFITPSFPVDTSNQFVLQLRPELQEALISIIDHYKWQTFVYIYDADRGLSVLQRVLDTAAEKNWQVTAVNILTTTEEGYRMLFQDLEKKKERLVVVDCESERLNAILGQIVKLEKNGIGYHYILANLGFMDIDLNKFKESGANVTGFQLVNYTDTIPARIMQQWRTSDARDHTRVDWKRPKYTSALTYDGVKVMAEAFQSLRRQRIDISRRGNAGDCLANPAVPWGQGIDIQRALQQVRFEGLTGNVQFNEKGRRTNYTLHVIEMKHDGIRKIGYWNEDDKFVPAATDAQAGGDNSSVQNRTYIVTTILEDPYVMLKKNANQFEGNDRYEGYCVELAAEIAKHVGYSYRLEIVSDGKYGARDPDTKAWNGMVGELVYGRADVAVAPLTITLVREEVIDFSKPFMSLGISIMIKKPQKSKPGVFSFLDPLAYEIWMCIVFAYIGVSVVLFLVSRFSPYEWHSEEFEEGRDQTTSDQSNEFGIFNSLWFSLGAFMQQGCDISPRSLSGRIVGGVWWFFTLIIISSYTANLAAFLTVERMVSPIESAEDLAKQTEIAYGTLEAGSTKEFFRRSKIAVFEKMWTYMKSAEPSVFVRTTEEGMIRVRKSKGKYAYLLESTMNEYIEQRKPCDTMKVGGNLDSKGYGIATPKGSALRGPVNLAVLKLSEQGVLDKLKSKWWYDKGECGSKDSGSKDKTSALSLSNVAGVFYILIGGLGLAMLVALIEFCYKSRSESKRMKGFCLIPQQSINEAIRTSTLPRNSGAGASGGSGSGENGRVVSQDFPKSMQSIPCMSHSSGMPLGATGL

Assay [2] deals with Halo7-GluA2 (GluA2 tagged with Halo7 at its N-terminus, pcDNA3.1B) (UniProt P23819). Described as above.
Assay [3] addresses ACP-GluA1 (GluA1 tagged with the acyl carrier protein at its N-terminus) (mouse). Kind of assay: single-molecule fluorescence tracking (TIRF), colocalization durations, single colour; living HEK293 cells, plasma membrane, 33 ms per frame, colocalization = two spots within 240 nm; duration histograms fitted with a single exponential, lifetimes corrected for photobleaching; 37 °C (monomer references ACP-TM and Halo7-TM at 22 °C); GluA1 and GluA2 homodimers also with TARP2-mGFP overexpression (lifetimes not significantly altered).

The target of assay [4] is ACP-GluA1ΔNTD (ACP-GluA1 with the N-terminal domain deleted) (mouse). The assay is described as above.
For assay [5] the target is unchanged. The assay can be described thus: single-molecule fluorescence imaging (TIRF), distribution of spot signal intensities; living HEK293 cells, plasma membrane, various number densities of expressed molecules; intensity histograms of the initial ten frames fitted with the sum of four (references: two) lognormal functions for monomers, dimers, trimers, tetramers; incidental colocalizations not told apart from true assemblies; also with 0.1 mM AMPA or 10 mM L-glutamate (fractions not altered).

Assay [6] deals with Halo7-GluA1 (GluA1 tagged with Halo7 at its N-terminus, pcDNA3.1B) (mouse). Kind of assay: single-molecule fluorescence tracking (TIRF), colocalization durations, single colour; living HEK293 cells, plasma membrane, 33 ms per frame, colocalization = two spots within 240 nm; duration histograms fitted with a single exponential, lifetimes corrected for photobleaching; 37 °C (monomer references ACP-TM and Halo7-TM at 22 °C); GluA1 and GluA2 homodimers also with TARP2-mGFP overexpression (lifetimes not significantly altered).

Sequence of ACP-GluA1 (GluA1 tagged with the acyl carrier protein at its N-terminus) (receptor) (P23818 19-907): as above
Sequence of Halo7-GluA2 (GluA2 tagged with Halo7 at its N-terminus, pcDNA3.1B) (P23819 25-883): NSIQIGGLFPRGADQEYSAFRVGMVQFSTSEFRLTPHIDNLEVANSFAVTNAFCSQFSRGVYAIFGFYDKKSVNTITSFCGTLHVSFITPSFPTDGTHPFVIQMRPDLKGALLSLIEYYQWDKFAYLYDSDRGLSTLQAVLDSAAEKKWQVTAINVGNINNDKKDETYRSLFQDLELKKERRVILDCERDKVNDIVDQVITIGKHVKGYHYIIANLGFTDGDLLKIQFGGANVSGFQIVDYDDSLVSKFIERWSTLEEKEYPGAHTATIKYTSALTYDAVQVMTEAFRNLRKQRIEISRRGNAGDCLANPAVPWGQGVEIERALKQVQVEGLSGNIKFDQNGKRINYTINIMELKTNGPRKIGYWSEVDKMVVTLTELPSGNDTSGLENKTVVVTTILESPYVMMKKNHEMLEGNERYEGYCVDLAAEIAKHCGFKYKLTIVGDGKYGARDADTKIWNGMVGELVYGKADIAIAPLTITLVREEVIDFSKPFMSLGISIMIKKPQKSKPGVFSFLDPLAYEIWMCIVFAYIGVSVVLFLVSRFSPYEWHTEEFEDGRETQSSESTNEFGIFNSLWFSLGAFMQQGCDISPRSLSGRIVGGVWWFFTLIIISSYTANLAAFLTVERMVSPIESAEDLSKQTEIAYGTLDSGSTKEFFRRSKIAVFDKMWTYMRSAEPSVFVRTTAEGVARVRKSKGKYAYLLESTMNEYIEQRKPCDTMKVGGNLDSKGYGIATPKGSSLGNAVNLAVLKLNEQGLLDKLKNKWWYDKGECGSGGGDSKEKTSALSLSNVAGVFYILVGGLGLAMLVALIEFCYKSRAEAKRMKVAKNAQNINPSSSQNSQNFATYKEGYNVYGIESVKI
Sequence of ACP-GluA1ΔNTD (ACP-GluA1 with the N-terminal domain deleted) (domain or fragment) (P23818 378-907, stated change not applied): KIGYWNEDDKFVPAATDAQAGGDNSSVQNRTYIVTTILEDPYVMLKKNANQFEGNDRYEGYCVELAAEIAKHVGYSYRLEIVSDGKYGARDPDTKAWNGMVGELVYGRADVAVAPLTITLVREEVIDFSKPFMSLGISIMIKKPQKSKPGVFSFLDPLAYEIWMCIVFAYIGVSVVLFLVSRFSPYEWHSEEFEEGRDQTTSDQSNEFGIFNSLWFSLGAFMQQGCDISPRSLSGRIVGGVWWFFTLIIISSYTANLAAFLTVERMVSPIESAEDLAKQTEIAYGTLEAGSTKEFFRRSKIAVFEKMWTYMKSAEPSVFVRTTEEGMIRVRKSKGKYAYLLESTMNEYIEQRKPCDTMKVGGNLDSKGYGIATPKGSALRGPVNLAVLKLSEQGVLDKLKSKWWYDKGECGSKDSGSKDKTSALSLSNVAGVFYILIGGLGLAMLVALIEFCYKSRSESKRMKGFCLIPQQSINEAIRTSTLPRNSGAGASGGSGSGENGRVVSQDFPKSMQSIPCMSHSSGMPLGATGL
Sequence of Halo7-GluA1 (GluA1 tagged with Halo7 at its N-terminus, pcDNA3.1B) (receptor) (P23818 19-907): as the sequence (P23818 19-907) above

As for “ACP-GluA1 (GluA1 tagged with the acyl carrier protein at its N-terminus) (receptor)”, the colocalization lifetime, homodimer in assay [1] stood at 177 ms. Further, in assay [2], the colocalization lifetime, GluA1/A2 heterodimer (average of the two tag combinations) amounted to 334 ms; the colocalization lifetime, GluA1/A2 heterotetramer (average of the two tag combinations) is 208 ms; the exponential lifetime, GluA1/A2 heterodimer was found to be 335 ms. In assay [3], the colocalization lifetime, homodimer worked out at 164 ms; the colocalization lifetime, homotetramer came to 98 ms; the colocalization lifetime, homotrimer came to 117 ms.
In assay [4], “ACP-GluA1ΔNTD (ACP-GluA1 with the N-terminal domain deleted) (domain or fragment)” came in with a colocalization lifetime, homodimer of 100 ms and a colocalization lifetime, homotetramer of 41 ms. Moreover, the tetramer fraction, fold smaller than that of full-length GluA1 (at 1–1.2 copies μm^−2) in assay [5] is 3 to 4 fold.
Substance “Halo7-GluA1 (GluA1 tagged with Halo7 at its N-terminus, pcDNA3.1B) (receptor)” had a colocalization lifetime, homodimer in assay [6] of 164 ms.
